The RNAGym collection of RNA variant scans (doi:10.1073/pnas.2313332121)

B1: TPR t1 (parent)
chain: GACCAAUCUGCCCUCAGAGCUCGAGAACAUCUUCGGAUGCAGAGGAGGCAGGCUUCGGUGGCGCGAUAGCGCCAACGUCCUCAACCUCCAAUGCAUCCCACCACAUGAUGAUGCCUGAAGAGCCUUGGUUUUUUG

Variants of: B1
Experiment: polymerase ribozyme fitness, log enrichment relative to wild type (log ratio); higher = more active; in vitro selection for triplet polymerase activity
Method in brief: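 Input and output libraries were sequenced on Illumina after a single in vitro selection round, run in triplicate on PCR-built, transcribed mutant libraries of each subunit of a heterodimeric triplet polymerase ribozyme. Selection annealed libraries to a biotinylated primer, the partner subunit and triplets, incubated them frozen at −7 °C, then gel-excised extended constructs for streptavidin-bead capture and RT-PCR. Genotypes with ≥10 input reads and ≥1 read per output were kept. Fitness is the logarithm, taken in base 2, of genotype enrichment divided by wild-type enrichment, using inverse-variance-weighted replicate averages.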

Going from G52A U133A to C79A C80G, the “polymerase ribozyme fitness (log ratio)” value falls from -0.415 to -5.91.

First: C53A A66U
Second: C49A U59A G122A
The “polymerase ribozyme fitness (log ratio)” value of the first is higher: -1.07 for the first, -1.33 for the second.

Going from A27C G57A C123A to C15A U133G, the “polymerase ribozyme fitness (log ratio)” value rises from -4.55 to -3.68.

Compared with C94A C123G, U9G A46G C73U A75G U96A U106G is lower in “polymerase ribozyme fitness (log ratio)” value: -0.728 for the first, -3.78 for the second.

First: A5G U78C C80A
Second: C72G G77A G120A
The “polymerase ribozyme fitness (log ratio)” value of the first is lower: -2.8 for the first, -1.96 for the second.

First: A2U G10U C15G U106A
Second: G45A C70A
The “polymerase ribozyme fitness (log ratio)” value of the first is lower: -2.38 for the first, -1.89 for the second.

Compared with C73A C115U, C12A G42A is lower in “polymerase ribozyme fitness (log ratio)” value: -1.36 for the first, -1.63 for the second.

Going from C13G G63A G71A U112C to C76A C102A C123A, the “polymerase ribozyme fitness (log ratio)” value rises from -5 to -3.55.

First: C12A C49U C70G
Second: G77A U92G C94A C99G A111C
The “polymerase ribozyme fitness (log ratio)” value of the first is higher: -4.56 for the first, -8.36 for the second.

Going from U21G G71U to C88A U112A, the “polymerase ribozyme fitness (log ratio)” value rises from -2.37 to -0.232.

First: C13U C85U C86G U106A
Second: A6U U33A
The “polymerase ribozyme fitness (log ratio)” value of the first is higher: -0.767 for the first, -4.02 for the second.

Going from C86G G113U to C56A G60U G113A, the “polymerase ribozyme fitness (log ratio)” value rises from -3.98 to -1.2.

A46U C64U C114U and G117C A118G are within 0.2 log units of each other in “polymerase ribozyme fitness (log ratio)” value: -2.92 for the first, -3.04 for the second.

First: A27U C72A
Second: A26G G63U
The “polymerase ribozyme fitness (log ratio)” value of the first is higher: -2.61 for the first, -3.45 for the second.

First: U33A U112C G122C
Second: G60A A95G
The “polymerase ribozyme fitness (log ratio)” value of the first is lower: -2.34 for the first, -0.00276 for the second.

Compared with G10A U21G G60A A103C C114A, A16U A46C C94U G120C is higher in “polymerase ribozyme fitness (log ratio)” value: -5.69 for the first, -0.971 for the second.

First: G48A C88A G113U G120A
Second: A29G G117A
The “polymerase ribozyme fitness (log ratio)” value of the first is lower: -4.63 for the first, -2.22 for the second.

Compared with A27G G69U A74U, G71A G113U is lower in “polymerase ribozyme fitness (log ratio)” value: -2.9 for the first, -3.89 for the second.

Compared with C70U C76U G113C C123A, C73G U125A is higher in “polymerase ribozyme fitness (log ratio)” value: -5.89 for the first, -1.21 for the second.

Going from A29C G44U C73G C82G U112C C115G to U38A G52U C62U U78G A90G, the “polymerase ribozyme fitness (log ratio)” value rises from -7.14 to -2.07.

Going from G69A U130C to G61A G122U, the “polymerase ribozyme fitness (log ratio)” value rises from -3.09 to 0.115.

Going from G77A C88U to G63A G77U C79U A100C, the “polymerase ribozyme fitness (log ratio)” value falls from -0.0927 to -2.62.

First: G47A G128A
Second: C72G U81C
The “polymerase ribozyme fitness (log ratio)” value of the first is lower: -2.43 for the first, -1.12 for the second.

Going from C20G A41C C73A U78A A84C C123U U133G to C3G A37U C49U A100U G113A U129A, the “polymerase ribozyme fitness (log ratio)” value falls from -3.7 to -4.75.

Going from C53U C62G C64U C115A to U32G G69U, the “polymerase ribozyme fitness (log ratio)” value falls from -2.42 to -4.52.

Going from C56A C62A U78C C79U to C11U A27U C72U U78G A121U, the “polymerase ribozyme fitness (log ratio)” value rises from -4.08 to -0.173.

Compared with U7G C79A C99U, G51U C101A is higher in “polymerase ribozyme fitness (log ratio)” value: -5.33 for the first, -4.55 for the second.

First: C22G G23C A24C C89A C123A
Second: G10C C11A U54G A68U U109A G128U
The “polymerase ribozyme fitness (log ratio)” value of the first is higher: -6.86 for the first, -7.09 for the second.

Going from A5C C73A C123G to C3U U9C C88G U116C, the “polymerase ribozyme fitness (log ratio)” value falls from 1.28 to -0.482.

Compared with C13G A43U C76U, C86G C98U is lower in “polymerase ribozyme fitness (log ratio)” value: -1.01 for the first, -1.59 for the second.

Compared with C8G C31U G71U G120U, A43C C49A G52A C73U U81C A95C C123A is lower in “polymerase ribozyme fitness (log ratio)” value: -3.77 for the first, -6.02 for the second.

C49U C70A and U21G G48U U59C A74U C114A are within 0.2 log units of each other in “polymerase ribozyme fitness (log ratio)” value: -2.47 for the first, -2.3 for the second.

Compared with C13G G51U A84C G127U, G39U G60U U129G is higher in “polymerase ribozyme fitness (log ratio)” value: -6.59 for the first, -2.5 for the second.

Going from C8A A74U C115U A118U C124U to C3U A26U G48A U130G, the “polymerase ribozyme fitness (log ratio)” value falls from -0.848 to -5.25.

Going from C8U U96A to A16G G60A, the “polymerase ribozyme fitness (log ratio)” value falls from -0.0448 to -1.26.

First: C28G G77U U78A C82U
Second: A27U G48C
The “polymerase ribozyme fitness (log ratio)” value of the first is higher: -3.54 for the first, -3.79 for the second.

Going from A91C C123A to U96C A118U U129C, the “polymerase ribozyme fitness (log ratio)” value rises from -1.1 to -0.593.

First: G23A G36A
Second: U125A G127C
The “polymerase ribozyme fitness (log ratio)” value of the first is lower: -5.32 for the first, -1.91 for the second.

Going from U106G C124A to A18U C22U A37U A118U, the “polymerase ribozyme fitness (log ratio)” value falls from 1.19 to -5.28.

Compared with C13A C123A, A43C C49U is lower in “polymerase ribozyme fitness (log ratio)” value: -0.742 for the first, -3.72 for the second.

First: U9G U38G
Second: A75U C97U
The “polymerase ribozyme fitness (log ratio)” value of the first is higher: -0.556 for the first, -0.863 for the second.

Going from G36A G42A U54G C72U A75U to G44A G93C, the “polymerase ribozyme fitness (log ratio)” value rises from -2.79 to -2.23.
